The assay addresses mature GDF8 (UniProt O14793 267-375). The assay can be described thus: BIAcore. For orientation: SPR reads the build-up and loss of mass on a sensor chip optically.

Chain of mature GDF8 (O14793 267-375): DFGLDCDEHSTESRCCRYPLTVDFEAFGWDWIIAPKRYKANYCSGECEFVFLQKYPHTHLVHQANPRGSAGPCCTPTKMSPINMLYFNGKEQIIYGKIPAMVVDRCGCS

B1: 1-257-1 (antibody, V domains shown)
VH: EVQLVESGGGLVKPGGSLRLSCAASGFTFSSYSMNWVRQAPGKGLEWVSSISSSSSYIYYADSVKGRFTISRDNAKNSLYLQMNSLRAEDTAVYYCARDRGYYYGMDVWGQGTTVTVSS
VL: DIQMTQSPSSLSASVGDRVTLTCRASQGIRNALGWYQQKPGKAPKRLIYGASSLQSGVPSRFSGSGSGTEFTLTISSLQPEDFATYYCLQHNSYPFTFGPGTKVDIKR
B1: the Kd (in general, the constant that tells how readily two partners part at equilibrium) came out at 0.16 nM.

B2: 1-314-1 (antibody, V domains shown)
VH: EVQLVESGGGLVKPGGSLRLSCAASGFTFSSYSMNWVRQAPGKGLEWVSSISSSSSYIYYADSVKGRFTISRDNAKNSLYLQMNSLRAEDTTVYYCARDRGYLYGMDVWGQGTTVTVSS
VL: DIQMTQSPSSLSASVGDRVTITCRASQAIRNDLGWYQQKPGKAPKRLIYAASSLQSGVPSRFSGSGSGTEFTLTISSLQPEDFATYYCLQHNSYPRTFGQGTKVEIKR
B2 registered a Kd of 0.11 nM.

B3: 1-136-3 (antibody, V domains shown)
VH: EVQLVESGGGLVKPGGSLRLSCAASGFTFSSYSMNWVRQAPGKGLEWVSSISSSSSYIYYADSVKGRFTISRDNAKNSLYLQMNSLRAEDTAVYYCARDRGYSYGIDYWGQGTLVTVSS
VL: DIQMTQSPSSLSASVGDRVTITCRASQGIRNALGWYQQKPGKAPKRLIYAASSLQSGVPSRFSGSGSGTEFTLTISSLQPEDFATYYCLQHNSYPRTFGQGTKVEIKR
Turning to B3, the affinity, expressed as Kd, was 0.043 nM.

B4: 1-66-1 (antibody, V domains shown)
VH: EVQLVESGGGLVKPGGSLRLSCAASGFTFSSYSMNWVRQAPGKGLEWVSSISSSSSYIYYADSVKGRFTISRDNAKNSLYLQMNSLRAEDTAVYYCARDRGYSYGLDYWGQGTLVTVSS
VL: DIQMTQSPSSLSASVGDRVTITCRASQGIRNDLGWYQQKPGKAPKRLIYAASSLQSGVPSRFSGSGSGTEFTLTISSLQPEDFATYYCLQLNSYPFTFGPGTKVDIKR
In turn, B4 had a Kd of 0.083 nM.

B5: 1-268-1 (antibody, V domains shown)
VH: EVQLVESGGGLVKPGGSLRLSCAASGFTFSSYSMNWVRQAPGKGLEWVSSISSSSSYIYYADSVKGRFTISRDNAKNSLYLQMNSLRAEDTAVYYCARDRGSYFLFDYWGQGTLVTVSS
VL: DMQMTQSPSSLSASVGDRVTITCRASQGIRNDLGWYQQKPGKAPKRLIYGASSLQSGVPSRFSGSGSGTEFTLTISSLQPEDSATYYCLQHNSYPLTFGGGTKVEIKR
Molecule B5 gave a Kd of 0.24 nM.

B6: 1-116-1 (antibody, V domains shown)
VH: EVQLVESGGGLVKPGGSLRLSCAASGFTFSSYSMNWVRQAPGKGLEWVSSISSSSSYIYYADSVKGRFTISRDNAKNSLYLQMNSLRAEDTAVYYCARDRGYSYGLDYWGQGTLVTVSS
VL: DIQMTQSPSSLSASVGDRVTITCRASQGIRNALGWYQQKPGKAPQRLIYAASSLQSGVPSRFSGSGSGTEFTLTISSLQPEDFATYYCLQHNSYPRTFGQGTKVEIKR
Turning to B6, the Kd was determined as 0.012 nM. This Kd is about 20-fold lower than that of the molecule before.

B7: 2-43-1 (antibody, V domains shown)
VH: EVQLLESGGGLVQPGGSLRLSCAASGFTFSSYAMSWVRQAPGKGLEWVSAISGSGGSTFYADSVTGRFTISRDNSKNTLFLQLNSLRAEDTAVYHCAKDGRFNWNYGASDIWGQGTMVTVSS
VL: EIVMTQSPATLSVSPGERATLSCRTSQSVSSNLAWYQQKPGQAPRLLIYGASTRATGIPARFSGSGSGTEFTLTISSLQSEDFAVYYCQQYNNWPLTFGGGTKVEIKR
As to B7, the Kd was determined as 1.5 nM. Compared with the last molecule, the Kd is about 120-fold higher.

B8: 2-177-1 (antibody, V domains shown)
VH: EVQLLESGGGLIQPGGSLRLSCAASGFTFSSFAMSWVRQAPGKGLEWVSTISGSGGSTYYADFVKGRFTISRDNSKNTLYLQMNSLRAEDTAVYYCAKDGRYNWNYGAFDIWGQGTMVTVSS
VL: EIVMTQSPATLSVSPGERATLSCRASQSVRSNLAWFQQKPGQAPRLLIYGASTRATGIPARFSGSGSGTEFTLTISSLQSEDFAVYYCQQYNNWPLTFGGGTKVEIKR
In turn, B8 displayed a Kd of 0.89 nM.

B9: 2-112-1 (antibody, V domains shown)
VH: EVQLLESGGGLIQPGGSLRLSCAASGFTFSSFAMSWVRQAPGKGLEWVSTISGSGGYTFYADSVKGRFTISRDNSKNTLYLQMNSLRAEDTAVYYCAKDGRYNWNYGAFDIWGQGTMVTVSS
VL: EIVMTQSPATLSVSPGERATLSCRASQSVSSNLAWYQQKPGQAPRLLIYGASTRATGFPARFSGSGSGTEFTLTISSLQSEDFAIYYCQQYNNWPLTFGGGTKVEIKR
The molecule B9 had a Kd of 0.011 nM.

Source of the values: US20060263354A1 (published 2006).
